Measurements from a protein production outcome set (Wang et al. 2014).

assay: label from the status in PepcDB records

**Q.** Which protein production does the source give for “MIRVMATGVFDILHLGHIHYLKESKKLGDELVVVVARDSTARNNGKIPIFDENSRLALISELKVVDRAILGHEGDMMKTVIEVKPDIITLGYDQKFDEAELQSKINKLGITVKIVRISKYDGQLNSSSSVRKKIMELIGERY” here?
**A.** Its protein production is “not failed”.

**Q.** Which protein production does the source give for “MISALDSIPEPQNFAPSPDFKWLCEELFVKIHEVQINGTAGTGKSRSFKYYEIISNFVEMWRKTVGNNIYPALVLALPYRDRRIYNIKDYVLIRTICSYLKLPKNSATEQRLKDWKQRVGKGGNLSSLLVEEIAKRRAEPSSKAITIDNVNHYLDSLSGDRFASGRGFKSLVKSKPFLHCVENMSFVELKYFFDIVLKNRVIGGQEHKLLNCWHPDAQDYLSVISDLKVVTSKLYDPKVRLKDDDLSIKVGFAFAPQLAKKVNLSYEKICRTLHDDFLVEEKMDGERIQVHYMNYGESIKFFSRRGIDYTYLYGASLSSGTISQHLRFTDSVKECVLDGEMVTFDAKRRVILPFGLVKGSAKEALSFNSINNVDFHPLYMVFDLLYLNGTSLTPLPLHQRKQYLNSILSPLKNIVEIVRSSRCYGVESIKKSLEVAISLGSEGVVLKYYNSSYNVASRNNNWIKVKPEYLEEFGENLDLIVIGRDSGKKDSFMLGLLVLDEEEYKKHQGDSSEIVDHSSQEKHIQNSRRRVKKILSFCSIANGISQEEFKEIDRKTRGHWKRTSEVAPPASILEFGSKIPAEWIDPSESIVLEIKSRSLDNTETNMQKYATNCTLYGGYCKRIRYDKEWTDCYTLNDLYESRTVKSNPSYQAERSQLGLIRKKRKRVLISDSFHQNRKQLPISNIFAGLLFYVLSDYVTEDTGIRITRAELEKTIVEHGGKLIYNVILKRHSIGDVRLISCKTTTECKALIDRGYDILHPNWVLDCIAYKRLILIEPNYCFNVSQKMRAVAEKRVDCLGDSFENDISETKLSSLYKSQLSLPPMGELEIDSEVRRFPLFLFSNRIAYVPRRKISTEDDIIEMKIKLFGGKITDQQSLCNLIIIPYTDPILRKDCMNEVHEKIKEQIKASDTIPKIARVVAPEWVDHSINENCQVPEEDFPVVNY” here?
**A.** Its protein production is “failed”.

**Q.** Which protein production does the source give for “MISLRTFLITFLVNIALLGIFWGNRMNFVDVVIFSFFSALFVSLATHILVTSRLRKLREAVARKSRFEDFLNDEITKLAEEVNSVVENSLIQEKETEKLKDIVTGFVHDVKSLVWNEVEDENLQKIIEEFYEFAKLEAGLERLRKEPVNLVELVNDVVEKFPGKVIFKYDDVVEVEADPMKLFRAFYNVIENAVKYSSGPVEVHVKKDRIIVKGPGPEIPYEVRANLFEKKKKSKGTGLGLYLAREFFEMHGFRIAYRREGNHNVFEIYTGYTGMSSVKSERDSR” here?
**A.** Its protein production is “not failed”.

**Q.** Which protein production does the source give for “MISMKEEIKKVIEETGLPIITDEKSGAAQWVDLRELRLSYIISVENIKPFYEGLKEGKLLGTKCKKCGRLFFPPQKDCPSCFDSDIEWVELKNEGTLETMTVVFVRPPSFSAYDPYPVAIAKLDDGPRILAWYKGDPQQAKPGMRVKIQVGKRKEGYLMYEIAPALEHHHHHH” here?
**A.** The protein production was “failed”.

**Q.** With “MISPDAKIKIQNFGRFLSNMVMPNIGAFIAWGFITALFIPTGWLPNETLASMVGPMITYLLPLLIGYTGGKLVGGDRGAVVGAITTMGVIVGTDIPMFMGAMMVGPMGGWAIKKFDNYIDGKVKSGFEMLVNNFSAGIIGMLCAILAFFLIGPFVKVLSGALAAGVNFLVSAHLLPLTSIFVEPAKILFLNNAINHGIFSPLGIQQASETGQSIFFLIEANPGPGLGILLAYMVFGKGTARQTAGGASIIHFFGGIHEIYFPYILMNPRLILAAIAGGMTGVFVLTMFNAGIVSPASPGSIFAILLMTQKGSIVGVLASIAAATGVSFAVASLLMKTQTSTEEDGDEAALEKATSQMKDMKSSSKNGAVVNNESKGDVDLATVQSIIVACDAGMGSSAMGASMLRKKVQDAGLNVHVTNLAINSLPESADIVITHKDLTGRARKHAPNAHHISLTNFLDSEMYNQLVTKLLAAQKQSAANDDQMVKVSVLAANDDSFEPQQPSVFQIQRENIHLGLKAANKEEAIRFAGNKLVELGYAEPEYVDAMFEREALVPTYLGESIAVPHGTVEAKDRVKKTGIVICQYPSGIQFTEDDDDVAKLVIGIAAKNDEHIQVITTITNALDEPEAIEKLTSTNDVEEILNILGGQQAA” as the sequence, how does the protein production read?
**A.** Its protein production is “failed”.

**Q.** For “MISRQQKMTFKEIKDGEMEERDILLTGFYNVRLNSVQEARLTYNLPNDQTVKFGFDGNGYSYGSDFWYIYNRTAQLGKEISSHLDENASKWIEEAGQKGYTTGNQAKVGAIACLPSYLSDAESSSHLAFVEYLNSDGSFIVSEMPSPNILNWRLIQPQSKMTFIYL”, which protein production is on record?
**A.** The protein production was “failed”.

**Q.** Which protein production does the source give for “MISSKNGAAMISRPVFLSDRVDEVFSRKLDLSVSSSSSSSLLQQFNKTHEGDDDARLALAHQLYKGGDFKQALEHSNMVYQRNPLRTDNLLLIGAIYYQLQEYDMCIARNEEALRIQPQFAECYGNMANAWKEKGDTDRAIRYYLIAIELRPNFADAWSNLASAYMRKGRLSEATQCCQQALSLNPLLVDAHSNLGNLMKAQGLIHEAYSCYLEAVRIQPTFAIAWSNLAGLFMESGDLNRALQYYKEAVKLKPAFPDAYLNLGNVYKALGRPTEAIMCYQHALQMRPNSAMAFGNIASIYYEQGQLDLAIRHYKQALSRDPRFLEAYNNLGNALKDIGRVDEAVRCYNQCLALQPNHPQAMANLGNIYMEWNMMGPASSLFKATLAVTTGLSAPFNNLAIIYKQQGNYSDAISCYNEVLRIDPLAADALVNRGNTYKEIGRVTEAIQDYMHAINFRPTMAEAHANLASAYKDSGHVEAAITSYKQALLLRPDFPEATCNLLHTLQCVCCWEDRSKMFAEVESIIRRQINMSVLPSVQPFHAIAYPIDPILALEISRKYAAHCSIIASRFGLPPFTHPAGLPVKREGGFKRLRIGYVSSDFGNHPLSHLMGSVFGMHNRENVEVFCYALSANDNTEWRQRIQSEAEHFLDVSAMSSDAIAKIINQDKIQILINLNGYTKGARNEIFAMQPAPIQVSYMGFPGTTGATYIDYLVTDEFVSPLQYAHIYSEKLVHLPHCYFVNDYKQKNQDVLDPNSKPKRSDYGLPEDKFIFACFNQLYKMDPEIVNTWCNILKRVPNSALWLLRFPAAGEMRFRTYAAAQGVQPDQIIFTDVAMKSEHIRRSVLADVILDTPLCNGHTTGTDVLWAGVPMITLPLEKMATRVAGSLCLATGLGHGMIVNSLEEYEEKAVSLALNKPKLQALTKELRASRLTCPLFDTMRWVKNLERSYFKMWNLHCSGQQPQHFKVLENDLEFPHDR” here?
**A.** Its protein production is “failed”.

**Q.** With “MISYIQTKIHHINFLHDSLFKNAFFLMLSSISTAGFGFIFWFLAAKFYSASDVGIATGIMSSMTLIVNLSRFGLDYSIIRFFPTHDKCKVFSTSTVISTLIALIFGLIFISGINSFSPELSFLRSPLYTLFYFISLTSSSVIFMAGIFFVAIREAEFQLYLNLIVGSRVLFVILFISLGAIGIFYAVGASFFIAFLISLVLILKSGTDLKLKIDRKFLTDSFNFSAGNFLTGLFMTVPNTLLPIMILNMHLVEQAAYYYIVFGIVSLLFMIPESISTSLFVEGSNGQSLKKTVIQSLVIIFLLLTPIALFFYLYGSLILGFIGQDYVAGGSGVFRLMIFASFFVVVNNVYFAIKRIQKDTKEITLLSGIIFILLIGLAFLLIPVLGIEGIGYAWIISYGTGALIILIQVFRKARFQNLLIKAM” as the sequence, how does the protein production read?
**A.** Its protein production is “failed”.

**Q.** Which protein production does the source give for “MITAFVLIRPRGNRVQALGEAIAELPQVAEVYSVTGPYDLVALVRLKDVEELDDVVTQGILSLEGVERTETLLAFRAYPRRLLDQGFALGQG” here?
**A.** Its protein production is “not failed”.

**Q.** Which protein production does the source give for “MITFIIHSVSAETASESLLSKLAEAKDYLRIQPSVSSRILKKHLANIGQLTINDQLSWHQNLLRASIALNDLNQVEKTVKVMLSYPELEKKTDKFVSLLSSLGIFLRRTGHPNESILLFNCGLEQPIKNGKQKISLLISKGSSLSSLNKYSQAKTTYAQALQLAKQQNSEVLISAIYNTLGIMALKQGNYTLAKEYLVNALQLSQKISRRSGQIVAGLQLLRLSILSDEPMLYDRLHYRISRLTLVSESEVRHAYLFWLEKAHKASKGNKLSAQEQDELLSKLDQIKPISVSLYNQLVETLAEPMGITSLALINESSEYQGDLLNNIHQCKNIE” here?
**A.** The protein production was “failed”.
